Experimental data published in patent publication US20070160576A1, “IL-17A/F heterologous polypeptides and therapeutic uses thereof” (Genentech, Inc., priority 2001, published 2007).

Columns and labels:
[1] = biological target: T1, PRO5801 (human IL-17RH1 receptor) (Homo sapiens, UniProt Q9NRM6); test: Receptor/ligand interaction screening assay (immunoadhesin); format: binding
T1 sequence (Q9NRM6 18-502): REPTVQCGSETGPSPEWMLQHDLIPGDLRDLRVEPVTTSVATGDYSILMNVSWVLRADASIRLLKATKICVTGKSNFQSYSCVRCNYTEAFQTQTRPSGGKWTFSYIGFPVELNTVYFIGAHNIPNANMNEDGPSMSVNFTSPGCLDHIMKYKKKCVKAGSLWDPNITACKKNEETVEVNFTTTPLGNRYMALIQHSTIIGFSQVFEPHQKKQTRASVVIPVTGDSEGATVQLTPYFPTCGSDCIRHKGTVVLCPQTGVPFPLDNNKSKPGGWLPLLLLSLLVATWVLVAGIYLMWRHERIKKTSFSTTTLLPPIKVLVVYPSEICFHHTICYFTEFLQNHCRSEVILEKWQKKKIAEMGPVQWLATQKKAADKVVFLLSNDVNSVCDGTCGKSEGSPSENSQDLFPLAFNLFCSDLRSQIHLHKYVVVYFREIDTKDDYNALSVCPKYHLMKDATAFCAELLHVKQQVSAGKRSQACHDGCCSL
Method: (§1) In general, the assay is performed as follows. A PRO polypeptide of the present invention suspected of being a ligand for a receptor is expressed as a fusion protein containing the Fc domain of human IgG (an immunoadhesin). Receptor-ligand binding is detected by allowing interaction of the immunoadhesin polypeptide with cells (e.g. Cos cells) expressing candidate PRO polypeptide receptors and visualization of bound immunoadhesin with fluorescent reagents directed toward the Fc fusion domain and examination by microscope. Cells expressing candidate receptors are produced by transient transfection, in parallel, of defined subsets of a library of cDNA expression vectors encoding PRO polypeptides that may function as receptor molecules. Cells are then incubated for 1 hour in the presence of the PRO polypeptide immunoadhesin being tested for possible receptor binding. The cells are then washed and fixed with paraformaldehyde. The cells are then incubated with fluorescent conjugated antibody directed against the Fc portion of the PRO polypeptide immunoadhesin (e.g. FITC conjugated goat anti-human-Fc antibody). The cells are then washed again and examined by microscope. A positive interaction is judged by the presence of fluorescent labeling of cells transfected with cDNA encoding a particular PRO polypeptide receptor or pool of receptors and an absence of similar fluorescent labeling of similarly prepared cells that have been transfected with other cDNA or pools of cDNA. If a defined pool of cDNA expression vectors is judged to be positive for interaction with a PRO polypeptide immunoadhesin, the individual cDNA species that comprise the pool are tested individually (the pool is “broken down”) to determine the specific cDNA that encodes a receptor able to interact with the PRO polypeptide immunoadhesin.
(§2) In another embodiment of this assay, an epitope-tagged potential ligand PRO polypeptide (e.g., 8 histidine “His” tag) is allowed to interact with a panel of potential receptor PRO polypeptide molecules that have been expressed as fusions with the Fc domain of human IgG (immunoadhesins). Following a 1 hour co-incubation with the epitope tagged PRO polypeptide, the candidate receptors are each immunoprecipitated with protein A beads and the beads are washed. Potential ligand interaction is determined by Western blot analysis of the immunoprecipitated complexes with antibody directed towards the epitope tag. An interaction is judged to occur if a band of the anticipated molecular weight of the epitope tagged protein is observed in the Western blot analysis with a candidate receptor, but is not observed to occur with the other members of the panel of potential receptors.

[2] = biological target: human IL-17 receptor (IL-17R, PRO1) (Homo sapiens, UniProt Q96F46); test: as above; format: binding
Method: as §1, §2

[3] = biological target: T2, PRO5801 (human IL-17RH1 receptor) as tested in the receptor/ligand screen (human, UniProt Q9NRM6 18-292, limits assumed); test: receptor/ligand screen (immunoadhesin on transfected cells or co-immunoprecipitation)
T2 sequence (looked up): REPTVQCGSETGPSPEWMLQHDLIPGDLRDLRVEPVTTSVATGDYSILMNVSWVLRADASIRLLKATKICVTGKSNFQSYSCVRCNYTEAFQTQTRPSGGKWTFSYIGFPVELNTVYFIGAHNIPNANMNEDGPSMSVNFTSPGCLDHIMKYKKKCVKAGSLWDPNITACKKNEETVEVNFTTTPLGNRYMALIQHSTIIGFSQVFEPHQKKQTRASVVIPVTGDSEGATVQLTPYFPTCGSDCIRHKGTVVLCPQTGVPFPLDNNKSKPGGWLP
Text: (§3) A PRO polypeptide of the present invention suspected of being a ligand for a receptor is expressed as a fusion protein containing the Fc domain of human IgG (an immunoadhesin). Receptor-ligand binding is detected by allowing interaction of the immunoadhesin polypeptide with cells (e.g. Cos cells) expressing candidate PRO polypeptide receptors and visualization of bound immunoadhesin with fluorescent reagents directed toward the Fc fusion domain and examination by microscope. Cells expressing candidate receptors are produced by transient transfection, in parallel, of defined subsets of a library of cDNA expression vectors encoding PRO polypeptides that may function as receptor molecules. Cells are then incubated for 1 hour in the presence of the PRO polypeptide immunoadhesin being tested for possible receptor binding. The cells are then washed and fixed with paraformaldehyde. […]
(§4) In another embodiment of this assay, an epitope-tagged potential ligand PRO polypeptide (e.g., 8 histidine “His” tag) is allowed to interact with a panel of potential receptor PRO polypeptide molecules that have been expressed as fusions with the Fc domain of human IgG (immunoadhesins). […] Potential ligand interaction is determined by Western blot analysis of the immunoprecipitated complexes with antibody directed towards the epitope tag.

[4] = biological target: T3, human IL-17 receptor (IL-17R, PRO1) as tested in the receptor/ligand screen (human, UniProt Q96F46 33-320, limits assumed); test: as above
T3 construct: also called IL-7R (as misprinted)
Text: as §3, §4

B1: PRO1031 (human IL-17B ligand) (ligand, UniProt Q9UHF5 21-180, looked up)
chain: QPRSPKSKRKGQGRPGPLAPGPHQVPLDLVSRMKPYARMEEYERNIEEMVAQLRNSSELAQRKCEVNLQLWMSNKRSLSPWGYSINHDPSRIPVDLPEARCLCLGCVNPFTMQEDRSMVSVPVFSQVPVRRRLCPPPPRTGPCRQRAVMETIAVGCTCIF
- binding to IL-17RH1 receptor (PRO5801) [1]: binds to
- binding to human IL-17 receptor (IL-17R, PRO1) [2]: do not bind
- binding result [3]: binds
- binding result [4]: no binding
